Results taken from patent US20200405868A1, “GEL-FORMING POLYPEPTIDES” (priority 2018, published 2020).
Entries after “also recorded” stand apart in the source; their conditions may differ. Where no end group is shown, it is not given here. [ ]: non-standard residue; d: D form. The star is where a group is joined. Palmitoyl = CCCCCCCCCCCCCCCC(=O)*

Assay: Compound gel-forming ability in water (visual inspection, tube tapping assay, tilted tube assay);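 also: peptides mixed with de-ionized water at about 22-25 °C, judged after 20 min by eye plus tube tapping (10 taps, moves counted) and 90° tilt mobility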
Format: physicochemical
Conditions: for Physical property at 11% w/w: 11% w/w in aqueous solution, room temperature; for gel formation in aqueous solution, 6% / propensity to form gels, wild-type counterparts, 6%: 6% w/w; for gel formation in aqueous solution, 11% / propensity to form gels, wild-type counterparts, 11%: 11% w/w; for gel formation in aqueous solution, 20% / propensity to form gels, wild-type counterparts, 20%: 20% w/w; for gel formation at 11% w/w: 11% w/w in water; for gel formation at 20% w/w: 20% w/w in water; for gel formation at 6% w/w: 6% w/w in water

Substance	gel formation in aqueous solution, 6% (Table 3)	gel formation in aqueous solution, 11% (Table 3)	Physical property at 11% w/w (Table 1)	propensity to form gels, wild-type counterparts, 11% (Table 5)	propensity to form gels, wild-type counterparts, 6% (Table 5)	gel formation at 11% w/w	other results
Pal-VQKLPHSY-NH2 (Palmitoyl-VQKLPHSY-NH2; SMILES CCCCCCCCCCCCCCCC(=O)N[C@H](C(=O)N[C@@H](CCC(N)=O)C(=O)N[C@@H](CCCCN)C(=O)N[C@@H](CC(C)C)C(=O)N1CCC[C@H]1C(=O)N[C@@H](Cc1c[nH]cn1)C(=O)N[C@@H](CO)C(=O)N[C@@H](Cc1ccc(O)cc1)C(N)=O)C(C)C) [SEQ ID NO:117]							Physical property at 11% w/w (Table 2): SS (SS for semisolid gel)
Pal-VQKLVDPSSPHSY-NH2 (Palmitoyl-VQKLVDPSSPHSY-NH2; SMILES CCCCCCCCCCCCCCCC(=O)N[C@H](C(=O)N[C@@H](CCC(N)=O)C(=O)N[C@@H](CCCCN)C(=O)N[C@@H](CC(C)C)C(=O)N[C@H](C(=O)N[C@@H](CC(=O)O)C(=O)N1CCC[C@H]1C(=O)N[C@@H](CO)C(=O)N[C@@H](CO)C(=O)N1CCC[C@H]1C(=O)N[C@@H](Cc1c[nH]cn1)C(=O)N[C@@H](CO)C(=O)N[C@@H](Cc1ccc(O)cc1)C(N)=O)C(C)C)C(C)C) [SEQ ID NO:112]							Physical property at 11% w/w (Table 2): SS (SS for semisolid gel)
QQRFEWEFEQQ-miniPEG-RPKPQQFFGLM-NH2 [SEQ ID NO:285]	AS/IS (AS/IS for aqueous solution or insoluble)	AS/IS (AS/IS for aqueous solution or insoluble)					
RGD-NH2 [SEQ ID NO:44, reference compound]		AS/IS (AS/IS for aqueous solution or insoluble)	AS/IS	AS/IS			
RPKPQQFF-Sar-L-Met-(O2)-NH2 [SEQ ID NO:69, reference compound]	AS/IS (AS/IS for aqueous solution or insoluble)	AS/IS (AS/IS for aqueous solution or insoluble)		AS/IS	AS/IS		gel formation in aqueous solution, 20% (Table 3): AS/IS (AS/IS for aqueous solution or insoluble); propensity to form gels, wild-type counterparts, 20% (Table 5): AS/IS
RPKPQQFFGLM-NH2 [SEQ ID NO:23, reference compound]		AS/IS (AS/IS for aqueous solution or insoluble)	AS/IS	AS/IS		semisolid gel	
SDAAVDTSSEITTKDLKEKKEVVEEAEN-NH2 (ends and bridges not checked) [SEQ ID NO:13, reference compound]						form self-assembling gels; also recorded: liquid gel	gel formation at 20% w/w: semisolid gel; gel formation in aqueous solution, 20% (Table 3): SS (SS for semisolid gel); propensity to form gels, wild-type counterparts, 20% (Table 5): SS (An ability to form semisolid gel is represented by an SS)
SLRRSSCFGGRMDRIGAQSGLGCNSFRY-NH2 [SEQ ID NO:41, reference compound]		AS/IS (AS/IS for aqueous solution or insoluble)	AS/IS	AS/IS		does not form gel	gel formation at 20% w/w: does not form gel; gel formation in aqueous solution, 20% (Table 3): AS/IS (AS/IS for aqueous solution or insoluble); propensity to form gels, wild-type counterparts, 20% (Table 5): AS/IS
SVSEIQLMHNLGKHLNSMERVEWLRKKLQDVHNF [SEQ ID NO:25, reference compound]	AS/IS (AS/IS for aqueous solution or insoluble)	AS/IS (AS/IS for aqueous solution or insoluble)	AS/IS	AS/IS	AS/IS	does not form gel	gel formation at 6% w/w: does not form gel
SYSMEHFRWGKPVGKKRRPVKVYP-OH [SEQ ID NO:33, reference compound]		AS/IS (AS/IS for aqueous solution or insoluble)	AS/IS	AS/IS		does not form gel	gel formation at 20% w/w: does not form gel; gel formation in aqueous solution, 20% (Table 3): AS/IS (AS/IS for aqueous solution or insoluble); propensity to form gels, wild-type counterparts, 20% (Table 5): AS/IS
VGVAPG-NH2 [SEQ ID NO:45, reference compound]	AS/IS (AS/IS for aqueous solution or insoluble)	AS/IS (AS/IS for aqueous solution or insoluble)	AS/IS	AS/IS	AS/IS		
VKVKVKVKV(D-Pro)PTKVKVKVKV-miniPEG-RPKPQQFFGLM-NH2 [SEQ ID NO:286]	AS/IS (AS/IS for aqueous solution or insoluble)	AS/IS (AS/IS for aqueous solution or insoluble)					
Y-(D-Ala)-GF(D-Leu)-NH2 [SEQ ID NO:22, reference compound]	AS/IS (AS/IS for aqueous solution or insoluble)	AS/IS (AS/IS for aqueous solution or insoluble)	AS/IS	AS/IS	AS/IS	do not form gels	gel formation at 6% w/w: do not form gels
Y-(D-Met)-FHLMD-NH2 [SEQ ID NO:21, reference compound]	AS/IS (AS/IS for aqueous solution or insoluble)	AS/IS (AS/IS for aqueous solution or insoluble)	AS/IS	AS/IS	AS/IS	do not form gels	gel formation at 6% w/w: do not form gels
YADAIFTNSYRKVLGQLSARKLLQDIMSR-NH2 [SEQ ID NO:35, reference compound]		AS/IS (AS/IS for aqueous solution or insoluble)	AS/IS	AS/IS		does not form gel	gel formation at 20% w/w: does not form gel; gel formation in aqueous solution, 20% (Table 3): AS/IS (AS/IS for aqueous solution or insoluble); propensity to form gels, wild-type counterparts, 20% (Table 5): AS/IS
YIGSR-NH2 [SEQ ID NO:39, reference compound]		AS/IS (AS/IS for aqueous solution or insoluble)	AS/IS	AS/IS			
YNWNSFGLRF-NH2 [SEQ ID NO:6, reference compound]	SS (SS for semisolid gel)	SS (SS for semisolid gel)	SS (SS for semisolid gel)	SS (An ability to form semisolid gel is represented by an SS)	SS (An ability to form semisolid gel is represented by an SS)	form self-assembling gels; also recorded: semisolid gel	gel formation at 6% w/w: semisolid gel
YRQSMNNFQGLRSFGCRFGTCTVQKLAHQIYQFTDKDKDNVAPRSKISPQGY-NH2 [SEQ ID NO:2, reference compound]	AS/IS (AS/IS for aqueous solution or insoluble)	SS (SS for semisolid gel)	SS (SS for semisolid gel)				
YRSRKYSSWY-NH2 [SEQ ID NO:46, reference compound]		AS/IS (AS/IS for aqueous solution or insoluble)	AS/IS	AS/IS			
YVMGHFRWDRF-NH2 [SEQ ID NO:64, reference compound]	AS/IS (AS/IS for aqueous solution or insoluble)				AS/IS	form self-assembling gels; also recorded: liquid gel	gel formation at 6% w/w: stay soluble; gel formation at the selected concentration (selected concentration (i.e., at 30%, 20%, 11%, or 6% w/w)): only form aqueous solution or are insoluble
[dF][dF]W[dR] [SEQ ID NO:7, reference compound]	SS (SS for semisolid gel)	SS (SS for semisolid gel)	SS (SS for semisolid gel)	SS (An ability to form semisolid gel is represented by an SS)	SS (An ability to form semisolid gel is represented by an SS)	form self-assembling gels; also recorded: semisolid gel	gel formation at 3% w/w (3% w/w in water): semisolid gel; gel formation at 6% w/w: semisolid gel; gel formation in aqueous solution, 3% (Table 3, 3% w/w): SS (SS for semisolid gel); propensity to form gels, wild-type counterparts, 3% (Table 5, 3% w/w): SS (An ability to form semisolid gel is represented by an SS)
enfuvirtide			AS/IS				
miniPEG-K(PAL)GCRFGTCTVQKLAHQIYQFTDKDVAPRSKISP(D-Gln)GY-NH2 [SEQ ID NO:48]			SS (SS for semisolid gel)			semisolid gel	
